In publication PMC4559334:
pKd: −log10 of the molar value.

Key:
Experiment in all cases: EMSA
Details in all cases: not stated in the material held
[1] = test system: AlaRS full-length (Escherichia coli)
C-Ala (Escherichia coli) = test system: C-Ala (Escherichia coli)
[2] = test system: ED-C-Ala (Escherichia coli)

For tRNAAla, 3'-labelled, the pKd [1] was 5.52, the pKd (C-Ala (Escherichia coli)) was 6.10 and the pKd [2] was 5.66.
